Measured values from IntAct's records for PubMed 17392269.

B1: Protein Pixie (Drosophila melanogaster (Fruit fly)), Q9VSS1 (parent)
chain: MSRRKENEEVDKQTRIAIVSDDKCKPKRCRQECKKTCPVVRMGKLCIEVTPTSKIASLSEELCIGCGICVKKCPFEAITIINLPSNLEKHTTHRYSKNSFKLHRLPIPRPGEVLGLVGQNGIGKSTALKILAGKQKPNLGKYANPPDWTEILSYFRGSELQNYFTKILEDNLKALVKPQYVDQIPKAVRGAVGDLLDKKDERELQTKICEMLDLSHIRDREIAQLSGGELQRFAIAMVCIQNADIFMFDEPSSYLDVKQRLNAALTIRSLLHPTKFIIVVEHDLSVLDYLSDFICCLYGVPGCYGVVTMPFSVREGINIFLDGFVPTENMRFRTESLTFKVSESATEEEIKRMNHYVYPAMVKTLGKFELTVEKGHFSDSEILVLLGENGTGKTTFIRMLAGNLQPDGEVELPMLNISYKPQKISPKFQNHVRHLLHDKIRDAYVHPQFIADVMKPMKIEEIMDQEVQNLSGGELQRVALVLCLGKPADVYLIDEPSAYLDSEQRLVAAKVIKRYILHAKKTGFVVEHDFIMATYLADRVIVIEGQPSVKTTAFSPQSLLNGMNRFLELLGITFRRDPNNFRPRINKNNSVKDTEQKRSGQFFFLEDEACN
partner: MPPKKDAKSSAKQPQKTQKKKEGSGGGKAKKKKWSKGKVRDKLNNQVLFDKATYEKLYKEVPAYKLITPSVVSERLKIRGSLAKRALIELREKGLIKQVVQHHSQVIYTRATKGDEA

Variants of: B1
Settings: with rs25_drome RpS25, P48588

| Variant | effect of a mutation on the interaction |
| --- | --- |
| E503Q | increasing interaction |
